In the RNAGym collection of RNA variant scans (doi:10.7554/elife.90254) one finds self-cleavage data, which are given here for 41 variants.

B1: OR4K15 (parent)
chain: GUUAACGGUCAUAGGCCAUGGAAACUAGGAGCACCAUUUCGCUGCCAGUGAAGAAAUGAACAAAGAAAAUCUGGGCCAGGCAGGCAUCAAAAGAAAUAGUCUUGCGCUCAACCAGAAAGUCUGUAAUCAUUUUAAGGGUA

In the data set the parent is B1. As to the kind of experiment: self-cleavage, relative activity (ratio to wild type); higher = more cleavage; in vitro, sequencing; the parent is a self-cleaving ribozyme.
Turning to GUUAACGGUCAUAGGCCAUGGAAACUAGGAGCACCAUUUCGCUGCCAGUUAAGAAAUGAACAAAGAAAAUCUGGGCCAGGCAGGCAUCAAAAGAAAUAGUCUUGCGCUCAACCAGAAAGUCUGAAAUCAUUUUAAGGGUA [G50U U124A], the self-cleavage came out at 0.91.
As for GUUAACGGUCAUAGGCCAUGGAAACUAGGAGCACCAUUUCGCUGCCAGUGAAGAAAUGAACAAAGAAAAACCGGGCCAGGCAGGCAUCAAAAGAAAUAGUCUUGCGCUCAACCAGAAAGUCUGUAAUCAUUUUAAGGGUA [U70A U72C], the self-cleavage worked out at 0.22.
Consider GUUUACGGUCAUAGGCCAUGGAAACUAGGAGCACCAUUUCGCUGCCAGUGAAGAAACGAACAAAGAAAAUCUGGGCCAGGCAGGCAUCAAAAGAAAUAGUCUUGCGCUCAACCAGAAAGUCUGUAAUCAUUUUAAGGGUA [A4U U57C], for which the self-cleavage worked out at 0.65.
Consider GUUAACGGUCAUAGGCCAUGGAAACUAGGAGCACCAUUUCGCUGCCAGUGAAGAAAUGAACGAAGAAAAUCUGGGCCAGGCAGGCAUCAAAAGAAAUAGUCUUGCGCUCAACCAGAAAGUCUGUAAUCAUUUUUAGGGUA [A62G A134U], for which the self-cleavage amounted to 1.75.
Take GUUAACGGUCAUAGGCCUUGGAAACUAGGAGCACCAUUUCGCUGCCAGUGAAGAAAUGAACAAAGAAAAUCUGGGCCAGGCAGGCAUCAAAAGAAAUAGUCUUGCGCUCAACCAGAUAGUCUGUAAUCAUUUUAAGGGUA [A18U A117U]: the self-cleavage came out at 0.76.
For the variant GUUAACGGUCAUAGGCCAUGGAAACUAGGAGCACCAUUUCACUGCCAGUGAAGAAAUGAACAAAGAAAAUCUGGGCCAGGCAGGCAUCAAAAGAAAUAGUCUUGCGCUCAACCAGAAAGUCUGUAAACAUUUUAAGGGUA [G41A U127A], the self-cleavage worked out at 2.15.
As for GUUAACGGUCAUAGGCCAUGGAAACUAGGAGCACCGUUUCGCUGCCAGUGAAGAAAUGAACAAAGAAAAUCUGGGCCAGGCAGGCAUCAAAAGAAAUAGUCUUGCGCUCACCCAGAAAGUCUGUAAUCAUUUUAAGGGUA [A36G A111C], the self-cleavage was determined as 0.
Regarding GUUAACGGUCAUAGGCCAUGGAAACCAGGAGCACCAUUUCGCUGCCAGUGAAGAAAUGAACAAAGAAAAUCUGGGCCAGGCAGGCAUCAAAAGAAAUAGUCUUGCGCUCAACCAGAACGUCUGUAAUCAUUUUAAGGGUA [U26C A118C], the self-cleavage turned out to be 0.51.
GUUAACGGUCAUAGGCCAUGGAAACUAGGAGCACCAUUUCGCUGCCAGUGAAGAAAUGAACAAAGAGAAUCUGGGCCAGGCAGGCGUCAAAAGAAAUAGUCUUGCGCUCAACCAGAAAGUCUGUAAUCAUUUUAAGGGUA [A67G A86G]: the self-cleavage was 1.22.
Take GUUAACGGUCAUAGGCCAUGGAAACUAGUAGCACCAUUUCGCUGCCAGUGAAGAAAUGAACAAAGAAAAUCUGGGCCAGGCAGGCAUCAAAAGAAAUAGUCAUGCGCUCAACCAGAAAGUCUGUAAUCAUUUUAAGGGUA [G29U U102A]: the self-cleavage was 1.
GUUAACGGUCAUAGGCCAUGGAAACUAGGAGCACCAUUUCGCUGCCAGUGUAGAAAUGAACAAAGAAAAUCUGGGCCAGGCAGGCAUCAAAAGAGAUAGUCUUGCGCUCAACCAGAAAGUCUGUAAUCAUUUUAAGGGUA [A51U A95G]: the self-cleavage was 2.
Regarding GUUAACGGUCAUAAGCCAUGGAAACUAGGAGCACCAUUUCGCUGCCAGUGAAGAAAUGAACAAAGAAAAUCUGGGCCAGGCAGGCAUCAAAGGAAAUAGUCUUGCGCUCAACCAGAAAGUCUGUAAUCAUUUUAAGGGUA [G14A A92G], the self-cleavage was 0.96.
Take GUUAACGGUCAUAGGCCAUGGAAACUAGGGGCACCAUUUCGCUGCCAGUGAAGAAAUGAACAAAGAAAAUCUGGGCCAGGCAGGCAUCAAAAGAAAUAGUCUUGCGCUCAACCAGCAAGUCUGUAAUCAUUUUAAGGGUA [A30G A116C]: the self-cleavage was found to be 0.03.
Turning to GUUAACAGUCAUAGGCCAUGGAAACUAGGAGCACCAUUUCGCUGCCAGUGAAGAAAUGAACAAGGAAAAUCUGGGCCAGGCAGGCAUCAAAAGAAAUAGUCUUGCGCUCAACCAGAAAGUCUGUAAUCAUUUUAAGGGUA [G7A A64G], the self-cleavage was 1.18.
Take GUUAACGGUCAUAGGCCAUGGAAACUAGGAGCACCAUUUCGCUGCCAGUGAAGAAAUGAACAAAGAAAGUCUGGGCCAGGCAGGCAUCAAUAGAAAUAGUCUUGCGCUCAACCAGAAAGUCUGUAAUCAUUUUAAGGGUA [A69G A91U]: the self-cleavage amounted to 1.63.
To GUUAACGGUCAUAGGCCACGGAAACUAGGGGCACCAUUUCGCUGCCAGUGAAGAAAUGAACAAAGAAAAUCUGGGCCAGGCAGGCAUCAAAAGAAAUAGUCUUGCGCUCAACCAGAAAGUCUGUAAUCAUUUUAAGGGUA [U19C A30G] belongs 0.94; to GUUAACGGUCAUAGGCCAUGGAAACUAGGAGCAUCAUUUCGCUGCCAGUGAAGAAAUGAACAAAGAAAAUCUGGGCCAGGCAGGCAUCAAAAGAAAUAGUAUUGCGCUCAACCAGAAAGUCUGUAAUCAUUUUAAGGGUA [C34U C101A], 0.21.
Take GUUAACGGUCAUAGGCCAUGGAAACUAGGAGCGCCAUUUCGCUGCCAGUGAAGAAAUGAACAAAGAAAAUCUGGGCCAGGCAGGCAUCAAAUGAAAUAGUCUUGCGCUCAACCAGAAAGUCUGUAAUCAUUUUAAGGGUA [A33G A92U]: the self-cleavage was found to be 0.42.
To GUUAACGGACAUAGGCCAUGGAAACUAGGAGCACCAUUUCGCUGCCAGUGAAGAAAUGAACAAAGAAAAUCUGGGCCAGGCAGGCAUCAAAAGAAAUAGUCUUGCGCUCAACCAGAAAGUCUGUAAUCAUUUUGAGGGUA [U9A A134G] belongs 1.66; to GUUAACGGUCAUAGGCCAUGGAAGCUAGGAGCACCAUUUCGCUGCCAGUGAAGAAAUGAACAAAGAAAAUCUGGGCCAGGCAGGCAUCAAAAGAAAUAGUCUUGCGCUCAACCAGAAAGUCUGUAAUCAUUUUAAGGGCA [A24G U139C], 0.99.
To GUUAACGGUCAUAGGCCAUGGAAACUAGGAGCACCAUUUCGCUGCCAGUGAAGAAAUGAACAAAGAAAGUCUGGGCCAGGCAGGCAUCAGAAGAAAUAGUCUUGCGCUCAACCAGAAAGUCUGUAAUCAUUUUAAGGGUA [A69G A90G] belongs 1.43; to GUUAACGGUCAUGGGCCAUGGAAACUAGGAGCACCAUUCCGCUGCCAGUGAAGAAAUGAACAAAGAAAAUCUGGGCCAGGCAGGCAUCAAAAGAAAUAGUCUUGCGCUCAACCAGAAAGUCUGUAAUCAUUUUAAGGGUA [A13G U39C], 0.92; to GUUAACGGUCAUAGGCCAUGGAAACUAGGAGCACCAUUUCGCUGCCAGUGAAGAUAUGAACAAAGAAAAUCUGGGCCAGGCAGGCAUCAAAAGAAAUAGUCUUGCGCUCAACCAGAAAGUCUGUGAUCAUUUUAAGGGUA [A55U A125G], 0.35.
For GUUAACGGUCAUAGGCCAUGGAAACUAGGAGCACCAUUUUGCUGCCAGUGAAGAAAUGAACAAAGAAAAUCUGGGCCAGGCAGGCAUCAAAAGAGAUAGUCUUGCGCUCAACCAGAAAGUCUGUAAUCAUUUUAAGGGUA [C40U A95G], the self-cleavage was determined as 1.96.
For GUUAACGGUCAAAGGCCAUGGAAACUAGGAGCACCAUUUCGCUGCCAGUGAAGAAAUGAACAAAGAAAAACUGGGCCAGGCAGGCAUCAAAAGAAAUAGUCUUGCGCUCAACCAGAAAGUCUGUAAUCAUUUUAAGGGUA [U12A U70A], the self-cleavage came out at 0.56.
Regarding GUUAACGGUCAUAGGCCAUGGAAACUAGGAGCACCAUUUCGCUGCCAGUGAAGGAAUGAACAAAGAAAAUCUGGGCCAGGCAGGCAUCAAAAGAAAUAGUCUUGAGCUCAACCAGAAAGUCUGUAAUCAUUUUAAGGGUA [A54G C105A], the self-cleavage was 0.06.
With GUUAACGGUCAUAGGCCAUGGAAACUAGGAGCACCAUUUCGCUGCCAGUGAAGAAAUGAACAAAGAAAAUCUGGGCCAGGCAGGCAUCUAAAGAAACAGUCUUGCGCUCAACCAGAAAGUCUGUAAUCAUUUUAAGGGUA [A89U U97C] the figure was 1.58.
GUUAACGGUCAUAGGCCAUGGAAACUAGGAGCACCAUUUCACUGCCAGUGAAGAAAUGAACAAAGAAAAUCUGGGCCAGGCAGGCAACAAAAGAAAUAGUCUUGCGCUCAACCAGAAAGUCUGUAAUCAUUUUAAGGGUA [G41A U87A]: the self-cleavage was 1.71.
In the case of GUUAACGGUCAUAGGCCAUGGAAACUAGGAGCACCAUUUCGCUGCCAGUGAAGAAAUGAACAAAGAAAAUCUGGGCCAGGCAGGCAUCAAAAGAAACAGUCUUGCGCUCAACCAGUAAGUCUGUAAUCAUUUUAAGGGUA [U97C A116U], the self-cleavage turned out to be 0.11.
On to GUUAACGGUCAUAGGCCAUGGAAACUAGGAGCACCGUUUCGCUGCCAGUGAAGAAAUGAACAAAGAAAAUCUGGGCCAGGCAGGCAUCAAAAGAAAUAGUCUUGCGCUCAACCAGAAAGUCUGUAAUCAUAUUAAGGGUA [A36G U131A], for which the self-cleavage amounted to 0.59.
Regarding GUUAGCGGUCAUAGGCCAUGGAAACUAGGAGCACCAUUUCGCUGCCAGUGAAGAAAUGAACAAAGAAAAUCUGGGCCAGGCAGGCAUCAAAAGAAAUAGUCUUGCGCUCAACCAGAAAGUCUGUAACCAUUUUAAGGGUA [A5G U127C], the self-cleavage was found to be 0.8.
As to GUUAACGGUCAUAGGCCAUGGAAACUAGGAGCGCCAUUUCGCUGCCAGUGAAGAAAUGAACAAAGAAAAUCUGGGCCAGGCAGGCACCAAAAGAAAUAGUCUUGCGCUCAACCAGAAAGUCUGUAAUCAUUUUAAGGGUA [A33G U87C], the self-cleavage was determined as 0.7.
As for GUUAACGGUCAUAGGCCAUGGAAACUGAGAGCACCAUUUCGCUGCCAGUGAAGAAAUGAACAAAGAAAAUCUGGGCCAGGCAGGCAUCAAAAGAAAUAGUCUUGCGCUCAACCAGAAAGUCUGUAAUCAUUUUAAGGGUA [A27G G28A], the self-cleavage is 0.78.
Consider GUUAACGGUCAUAGGCCAUGGAAACUAGAAGCACCAUUUCGCUGCCAGUGAAGAAAUGAACAAAGAAAAUCUGGGCCAGGCAGGCAUCAAAAGAAAUAGUCUUGCGCUCAACCAGAGAGUCUGUAAUCAUUUUAAGGGUA [G29A A117G], for which the self-cleavage was 1.77.
With GUUAACGGUCAUAGGCCAAGGAAACUAGGAGCACCAUUUCGCUGCCAGUGAAGAAAUGAACAAAGAAAAUCUGGGCCAGGCAGGCAUCAAAAGAAAUAGUCUUGCGCUCAACCAGCAAGUCUGUAAUCAUUUUAAGGGUA [U19A A116C] the figure was 0.09; with GUUAACGGUCAUAGGCCAUGGAAACUAGGAGCACCAUUUCGCUGCCAGUGAAGAAAUGAACGAAGAAAAUCUGGGCCAGGCAGGCAUCAAAAGAAUUAGUCUUGCGCUCAACCAGAAAGUCUGUAAUCAUUUUAAGGGUA [A62G A96U], 1.26; with GUUAACGGUCAUAGGCCAUGGAAACUAGGAGCACCAUUUCGCUGCCAGUGAAGAAAUGAACAAAGAAAAUCAGGGCCAGGCAGGCAUCAAAAGAAAUAGUCUUGCGCUCAACCAGAAAGUCUGAAAUCAUUUUAAGGGUA [U72A U124A], 0.1.
As to GUUAACGGUCAUAGGCCAUGGAAACUGGGGGCACCAUUUCGCUGCCAGUGAAGAAAUGAACAAAGAAAAUCUGGGCCAGGCAGGCAUCAAAAGAAAUAGUCUUGCGCUCAACCAGAAAGUCUGUAAUCAUUUUAAGGGUA [A27G A30G], the self-cleavage stood at 0.69.
Consider GUUAACGGUCAUAGGCCAUGGAAACUAGGAGCACCAUUCCGCUGCCAGUGAAGAAAUGAACAAAGAAAAUCUGGGCCAGGCAGGCAUCAAAAGAAAUAGUCUUGCGCUCAACCAGAAAGUCUGUAAUCAUUAUAAGGGUA [U39C U132A], for which the self-cleavage is 0.7.
Regarding GUUAACGGUCAUAGGCCAUGGAUACUAGGAGCACCAUUUCGCUGCCAGUGAAGAAAUGAACAAAGAAAAUCUGGGCCAGGCAGGCAUCAAAAGAAAUAGUCUUGCGCCCAACCAGAAAGUCUGUAAUCAUUUUAAGGGUA [A23U U108C], the self-cleavage came to 0.01.
In the case of GUUAACGGUCAUAGGCCAUGGAAACUAGGAGCACCAUUUCGCUGCCAGUGAAGAAAUGAACAAAGAAAACCUGGGCCAGGCUGGCAUCAAAAGAAAUAGUCUUGCGCUCAACCAGAAAGUCUGUAAUCAUUUUAAGGGUA [U70C A82U], the self-cleavage is 0.37.
